{
  "source": "paper PMC6719441",
  "about": "“CDK2 regulates the NRF1/Ehmt1 axis during meiotic prophase I”",
  "target": "T1, NRF1 (GST-NRF1, unphosphorylated) (Homo sapiens, UniProt Q16656 1-503)",
  "T1 sequence": "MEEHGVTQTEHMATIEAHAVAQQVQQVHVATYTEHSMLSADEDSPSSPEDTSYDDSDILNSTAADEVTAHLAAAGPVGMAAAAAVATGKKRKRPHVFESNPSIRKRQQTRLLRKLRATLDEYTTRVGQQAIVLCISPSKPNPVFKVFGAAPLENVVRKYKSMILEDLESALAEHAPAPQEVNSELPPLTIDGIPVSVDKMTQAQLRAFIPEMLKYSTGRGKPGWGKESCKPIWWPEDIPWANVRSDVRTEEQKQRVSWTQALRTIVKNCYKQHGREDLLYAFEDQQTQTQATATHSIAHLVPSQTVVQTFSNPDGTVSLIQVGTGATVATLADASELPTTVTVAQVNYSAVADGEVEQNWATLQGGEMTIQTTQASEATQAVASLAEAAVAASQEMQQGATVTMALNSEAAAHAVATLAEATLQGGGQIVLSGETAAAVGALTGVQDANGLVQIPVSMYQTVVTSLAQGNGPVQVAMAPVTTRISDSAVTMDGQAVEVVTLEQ",
  "assay": "EMSA; 1-3 ug protein, poly[d(I-C)]; concentration-dependent; 5 mM Hepes pH 8.0, 20 nM DTT (so in the source), 30 mM NaCl, 10 ng DIG probe, 1 ug poly[d(I-C)], 0.5-2 ug GST-NRF1 (Methods; legend 1-3 ug), 5 min RT; 6% native TBE-PAGE, 0.5x TBE pH 8.3, 4 C",
  "settings": "protein: recombinant; tags: N-terminal GST (pGEX6P1); chain copies: 2; label: DIG (DIG 3'-end labeling kit named); blunt",
  "data": [
    {"binder": "Ehmt1 promoter probe (PKO 5019/PKO 5020) (dsDNA) DNA 1: GCCACCTGGCCTCGCCTCCAGACGCAGGCGCCGCACGGGTGGGTC DNA 2: GACCCACCCGTGCGGCGCCTGCGTCTGGAGGCGAGGCCAGGTGGC", "values": [
      {"measurement": "binding result", "result": "binds"}
    ]}
  ]
}
